Measurements: patent publication US20040038290A1 (ROCKEFELLER UNIVERSITY, published 2004)
One block for each molecule: values may come before it.

Experiments:
[1] = target: E. coli Pol III (Escherichia coli) (UniProt P10443); experiment: cell-based or functional assay
[2] = target: human DNA polymerase delta (human) (UniProt P28340); experiment: cell-based or functional assay
[3] = target: T1, Aquifex aeolicus α subunit of DNA polymerase III (Aquifex aeolicus, UniProt O67125 1-1161); experiment: complex constitution from pure subunits, column chromatography
T1 construct: Recombinant, expressed in E. coli from pETAadnaE (pET24); also called A.ae. α; Aquifex α
T1 sequence: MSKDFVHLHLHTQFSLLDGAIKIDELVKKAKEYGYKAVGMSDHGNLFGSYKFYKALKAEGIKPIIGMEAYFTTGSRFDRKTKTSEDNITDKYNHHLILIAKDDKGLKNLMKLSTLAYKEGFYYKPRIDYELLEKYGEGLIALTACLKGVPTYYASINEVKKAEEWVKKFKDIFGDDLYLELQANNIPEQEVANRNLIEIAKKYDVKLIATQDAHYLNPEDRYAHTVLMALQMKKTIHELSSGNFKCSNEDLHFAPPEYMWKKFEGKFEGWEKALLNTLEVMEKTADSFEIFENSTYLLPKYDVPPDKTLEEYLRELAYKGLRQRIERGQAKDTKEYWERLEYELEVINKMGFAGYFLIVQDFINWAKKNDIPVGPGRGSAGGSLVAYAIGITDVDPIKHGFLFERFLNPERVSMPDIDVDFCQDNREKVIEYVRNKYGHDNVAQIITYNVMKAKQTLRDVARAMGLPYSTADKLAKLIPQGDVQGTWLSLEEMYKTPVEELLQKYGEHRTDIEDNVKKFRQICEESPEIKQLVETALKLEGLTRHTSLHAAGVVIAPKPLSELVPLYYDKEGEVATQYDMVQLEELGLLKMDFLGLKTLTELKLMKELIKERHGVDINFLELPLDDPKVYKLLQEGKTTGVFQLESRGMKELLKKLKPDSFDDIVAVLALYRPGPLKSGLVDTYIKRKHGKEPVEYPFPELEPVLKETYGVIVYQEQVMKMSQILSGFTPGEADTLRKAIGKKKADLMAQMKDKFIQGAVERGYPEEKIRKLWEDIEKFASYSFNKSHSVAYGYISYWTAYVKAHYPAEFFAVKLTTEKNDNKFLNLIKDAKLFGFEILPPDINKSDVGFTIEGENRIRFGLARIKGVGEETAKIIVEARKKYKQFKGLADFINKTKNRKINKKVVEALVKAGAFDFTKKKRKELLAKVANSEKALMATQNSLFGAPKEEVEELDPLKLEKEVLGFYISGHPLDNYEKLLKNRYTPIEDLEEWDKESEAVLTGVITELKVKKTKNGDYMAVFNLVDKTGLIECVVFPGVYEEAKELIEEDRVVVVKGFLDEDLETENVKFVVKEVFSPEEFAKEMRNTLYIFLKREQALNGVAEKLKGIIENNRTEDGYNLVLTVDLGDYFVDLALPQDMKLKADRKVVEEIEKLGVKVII

[4] = target: Thermus thermophilus DNA polymerase III purified from T.th. cell extracts; experiment: cell-based or functional assay

E. coli Pol III (Escherichia coli), sequence (P10443 whole entry): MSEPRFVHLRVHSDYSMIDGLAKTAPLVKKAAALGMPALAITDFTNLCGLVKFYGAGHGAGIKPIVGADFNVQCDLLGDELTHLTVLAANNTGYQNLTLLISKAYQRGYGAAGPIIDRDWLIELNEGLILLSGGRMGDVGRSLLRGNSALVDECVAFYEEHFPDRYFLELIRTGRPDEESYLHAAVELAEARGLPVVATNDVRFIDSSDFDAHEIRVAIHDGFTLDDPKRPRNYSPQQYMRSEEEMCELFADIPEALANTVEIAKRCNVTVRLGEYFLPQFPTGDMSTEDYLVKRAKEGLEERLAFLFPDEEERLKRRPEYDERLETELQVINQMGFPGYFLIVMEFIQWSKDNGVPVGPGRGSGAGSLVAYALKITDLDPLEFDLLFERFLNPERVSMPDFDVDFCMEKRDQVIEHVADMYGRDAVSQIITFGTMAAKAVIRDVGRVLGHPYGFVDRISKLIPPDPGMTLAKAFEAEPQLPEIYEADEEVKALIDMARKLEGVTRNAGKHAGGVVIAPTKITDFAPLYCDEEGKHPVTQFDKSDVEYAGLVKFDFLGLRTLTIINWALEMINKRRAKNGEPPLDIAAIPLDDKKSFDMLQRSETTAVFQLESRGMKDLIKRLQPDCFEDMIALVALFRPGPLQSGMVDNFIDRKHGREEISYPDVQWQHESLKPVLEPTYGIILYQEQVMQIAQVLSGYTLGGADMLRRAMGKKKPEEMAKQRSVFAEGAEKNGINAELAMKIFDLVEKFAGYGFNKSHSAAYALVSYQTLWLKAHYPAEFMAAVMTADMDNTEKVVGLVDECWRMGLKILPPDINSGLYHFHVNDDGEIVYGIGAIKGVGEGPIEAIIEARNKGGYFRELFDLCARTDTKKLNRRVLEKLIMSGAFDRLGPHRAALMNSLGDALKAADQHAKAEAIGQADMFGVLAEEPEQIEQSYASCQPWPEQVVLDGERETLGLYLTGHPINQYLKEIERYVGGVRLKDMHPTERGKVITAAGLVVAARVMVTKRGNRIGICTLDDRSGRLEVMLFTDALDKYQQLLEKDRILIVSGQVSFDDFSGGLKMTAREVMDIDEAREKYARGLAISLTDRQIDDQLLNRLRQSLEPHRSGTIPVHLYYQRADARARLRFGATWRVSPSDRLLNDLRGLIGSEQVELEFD
human DNA polymerase delta (human), sequence (P28340 whole entry, stated change not applied): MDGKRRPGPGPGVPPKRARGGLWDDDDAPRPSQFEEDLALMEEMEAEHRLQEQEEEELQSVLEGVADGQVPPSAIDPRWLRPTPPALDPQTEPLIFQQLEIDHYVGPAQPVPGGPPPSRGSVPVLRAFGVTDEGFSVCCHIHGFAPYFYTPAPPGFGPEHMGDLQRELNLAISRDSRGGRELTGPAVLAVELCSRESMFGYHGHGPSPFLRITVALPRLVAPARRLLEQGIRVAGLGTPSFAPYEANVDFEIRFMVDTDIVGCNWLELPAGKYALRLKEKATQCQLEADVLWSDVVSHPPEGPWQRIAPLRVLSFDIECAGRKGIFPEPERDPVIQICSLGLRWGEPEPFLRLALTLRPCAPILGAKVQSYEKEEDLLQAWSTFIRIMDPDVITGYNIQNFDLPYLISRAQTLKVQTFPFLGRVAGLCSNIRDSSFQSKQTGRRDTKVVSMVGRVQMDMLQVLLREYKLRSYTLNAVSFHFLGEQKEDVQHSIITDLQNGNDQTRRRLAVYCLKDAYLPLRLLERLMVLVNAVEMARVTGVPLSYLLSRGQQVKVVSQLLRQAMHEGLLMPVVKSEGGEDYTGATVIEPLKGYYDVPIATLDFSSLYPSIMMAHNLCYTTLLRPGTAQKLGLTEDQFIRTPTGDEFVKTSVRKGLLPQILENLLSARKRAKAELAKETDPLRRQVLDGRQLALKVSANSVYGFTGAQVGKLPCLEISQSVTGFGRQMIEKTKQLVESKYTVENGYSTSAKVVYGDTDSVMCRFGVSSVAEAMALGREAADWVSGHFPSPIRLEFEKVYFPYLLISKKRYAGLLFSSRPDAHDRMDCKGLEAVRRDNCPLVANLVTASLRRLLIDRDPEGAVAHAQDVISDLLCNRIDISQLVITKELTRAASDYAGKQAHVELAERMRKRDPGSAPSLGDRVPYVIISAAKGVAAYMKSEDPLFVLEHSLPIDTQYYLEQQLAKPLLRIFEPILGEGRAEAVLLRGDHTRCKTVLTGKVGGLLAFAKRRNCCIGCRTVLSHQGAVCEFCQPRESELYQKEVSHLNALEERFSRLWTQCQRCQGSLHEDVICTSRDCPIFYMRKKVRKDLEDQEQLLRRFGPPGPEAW

Molecule: E. coli β subunit (from UniProt P0A988 1-366)
- pmol synthesis on oligodT-primed linear polydA, E. coli Pol III with β (lane 2) [1]: 35 pmol
- pmol synthesis on oligodT-primed linear polydA, E. coli Pol III without β (lane 1, baseline) [1]: 6 pmol

Molecule: human PCNA (from UniProt P12004 1-261)
- pmol synthesis on oligodT-primed linear polydA, human Polδ with PCNA (lane 4) [2]: 24 pmol
- pmol synthesis on oligodT-primed linear polydA, human Polδ without PCNA (lane 3, baseline) [2]: 2 pmol

The remaining lines, values ahead:

- binding result [3]: binds
B1: Aquifex aeolicus tau subunit of DNA polymerase III (other)
chain: MNYVPFARKYRPKFFREVIGQEAPVRILKNAIKNDRVAHAYLFAGPRGVGKTTIARILAKALNCKNPSKGEPCGECENCREIDRGVFPDLIEMDAASNRGIDDVRALKEAVNYKPIKGKYKVYIIDEAHMLTKEAFNALLKTLEEPPPRTVFVLCTTEYDKILPTILSRCQRIIFSKVRKEKVIEYLKKICEKEGIECEEGALEVLAHASEGCMRDAASLLDQASVYGEGRVTKEVVENFLGILSQESVRSFLKLLLNSEVDEAIKFLRELSEKGYNLTKFWEMLEEEVRNAILVKSLKNPESVVQNWQDYEDFKDYPLEALLYVENLINRGKVEARTREPLRAFELAVIKSLIVKDIIPVSQLGSVVKETKKEEKKVEVKEEPKVKEEKPKEQEEDRFQKVLNAVDGKILKRILEGAKREERDGKIVLKIEASYLRTMKKEFDSLKETFPFLEFEPVEDKKKPQKSSGTRLF
notes: Recombinant, expressed in E. coli from pETAadnaX (pET24); also called A.ae. tau

- pmol synthesis on oligodT-primed linear polydA, T.th. Pol III with T.th. β (lane 6) [4]: 1.9 pmol
- pmol synthesis on oligodT-primed linear polydA, T.th. Pol III without T.th. β (lane 5, baseline) [4]: 0.6 pmol
B2: Thermus thermophilus β subunit, recombinant (protein)
chain: MNITVPKKLLSDQLSLLERIVPSRSANPLYTYLGLYAEEGALILFGTNGEVDLEVRLPAEAQSLPRVLVPAQPFFQLVRSLPGDLVALGLASEPGQGGQLELSSGRFRTRLSLAPAEGYPELLVPEGEDKGAFPLRTRMPSGELVKALTHVRYAASNEEYRAIFRGVQLEFSPQGFRAVASDGYRLALYDLPLPQGFQAKAVVPARSVDEMVRVLKGADGAEAVLALGEGVLALALEGGSGVRMALRLMEGEFPDYQRVIPQEFALKVQVEGEALREAVRRVSVLSDRQNHRVDLLLEEGRILLSAEGDYGKGQEEVPAQVEGPDMAVAYNARYLLEALAPVGDRAHLGISGPTSPSLIWGDGEGYRAVVVPLRVZ
